According to the supplement of paper PMC10567573:

B1: NECAB1 (parent)
chain: FSPNSPQFNVSGPGLLEEDNQWMT

Variants of: B1
Assay: protein stability index of a GFP-peptide fusion (GPS, HEK-293T) (PSI 1-6); higher = more stable
Settings: c terminus: a fixed tail appended
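Also: lentivirally expressed fusions sorted by FACS into six bins by GFP to DsRed ratio, PSI derived from sequencing read proportions per bin multiplied by bin number.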

Going from FSPNSPQFNVSGPGLLLEDNQWMT [E17L] to FSPNSPQFNVSGPGLLWEDNQWMT [E17W], the protein stability index rises from 2.29 to 2.82.

First: FSPNSPQFNVSGPGLLEEDNQWMQ [T24Q]
Second: FSPNSPQFNVSGPGLLEEDNQWMA [T24A]
The protein stability index of the first is higher: 3.04 for the first, 2.82 for the second.

Compared with FSPNSPQFNVSGPGLLEEDNQWMD [T24D], FSPNSPQFNVSGPGLLEEDNQWMK [T24K] is lower in protein stability index: 3.57 for the first, 2.37 for the second.

Going from FSPNSPQFNVSGPGLLEEDNQWMR [T24R] to FSPNSPQFNVSGPGLLEEDNQWME [T24E], the protein stability index rises from 2.97 to 3.92.

First: FSPNSPQFNVSGPGLLEEDNNWMT [Q21N]
Second: FSPNSPQFNVSGPGLLEEDNDWMT [Q21D]
The protein stability index of the first is lower: 1.84 for the first, 1.97 for the second.

First: FSPNSPQFNVSGPGLLEEDNCWMT [Q21C]
Second: FSPNSPQFNVSGPGLLEEDNSWMT [Q21S]
The protein stability index of the first is lower: 2.14 for the first, 2.15 for the second.

Compared with FSPNSPQFNVSGPGLLEEDNIWMT [Q21I], FSPNSPQFNVSGPGLLEEDNHWMT [Q21H] is higher in protein stability index: 1.95 for the first, 2.57 for the second.

Compared with FSPNSPQFNVSEPGLLEEDNQWMT [G12E], FSPNSPQFNVSMPGLLEEDNQWMT [G12M] is higher in protein stability index: 3.12 for the first, 3.18 for the second.

Going from FSPNSPQFNVSRPGLLEEDNQWMT [G12R] to FSPNSPQFNVSVPGLLEEDNQWMT [G12V], the protein stability index rises from 2.7 to 2.86.

Compared with FSPNSPQFNVSPPGLLEEDNQWMT [G12P], FSPNSPQFNVSGPHLLEEDNQWMT [G14H] is lower in protein stability index: 2.86 for the first, 2.47 for the second.

First: FSPNSPQFNVSGPPLLEEDNQWMT [G14P]
Second: FSPNSPQFNVSGPRLLEEDNQWMT [G14R]
The protein stability index of the first is higher: 3.17 for the first, 2.63 for the second.

Going from FSPNSPQFNVSGPNLLEEDNQWMT [G14N] to FSPNSPQFNVSGPCLLEEDNQWMT [G14C], the protein stability index rises from 2.89 to 3.32.

First: FSPNSPQVNVSGPGLLEEDNQWMT [F8V]
Second: FSPNSPQWNVSGPGLLEEDNQWMT [F8W]
The protein stability index of the first is higher: 3.61 for the first, 1.43 for the second.

Going from RSPNSPQFNVSGPGLLEEDNQWMT [F1R] to VSPNSPQFNVSGPGLLEEDNQWMT [F1V], the protein stability index rises from 4.33 to 4.34.

First: PSPNSPQFNVSGPGLLEEDNQWMT [F1P]
Second: YSPNSPQFNVSGPGLLEEDNQWMT [F1Y]
The protein stability index of the first is higher: 4.51 for the first, 3.25 for the second.

Compared with FSPNLPQFNVSGPGLLEEDNQWMT [S5L], FSPNGPQFNVSGPGLLEEDNQWMT [S5G] is lower in protein stability index: 2.93 for the first, 2.72 for the second.

Going from FSPNFPQFNVSGPGLLEEDNQWMT [S5F] to FSMNSPQFNVSGPGLLEEDNQWMT [P3M], the protein stability index rises from 2 to 3.22.

Compared with FSRNSPQFNVSGPGLLEEDNQWMT [P3R], FSPNSPQFNVVGPGLLEEDNQWMT [S11V] is lower in protein stability index: 2.88 for the first, 2.51 for the second.

Going from FSPNSPQFNVCGPGLLEEDNQWMT [S11C] to FSPNSPQFNVWGPGLLEEDNQWMT [S11W], the protein stability index rises from 2.54 to 3.29.

Going from FSPNSPQFNVKGPGLLEEDNQWMT [S11K] to FSPNSPQFNVGGPGLLEEDNQWMT [S11G], the protein stability index rises from 2.44 to 2.76.

Compared with FSPNSPQFNVSGPGLLEEDSQWMT [N20S], FSPNSPQFNVSGPGLLEEDIQWMT [N20I] is lower in protein stability index: 2.68 for the first, 2.24 for the second.

First: FSPNSPQFNVSGPGLLEEDRQWMT [N20R]
Second: FSPNSPQFNVSGPGLLEEDHQWMT [N20H]
The protein stability index of the first is higher: 2.88 for the first, 2.62 for the second.

First: FSPNSPQFNVSGPGLLEEDYQWMT [N20Y]
Second: FSPNSPIFNVSGPGLLEEDNQWMT [Q7I]
The protein stability index of the first is higher: 2.26 for the first, 2.11 for the second.

Compared with FSPNSPEFNVSGPGLLEEDNQWMT [Q7E], FSPNSPGFNVSGPGLLEEDNQWMT [Q7G] is lower in protein stability index: 3.88 for the first, 2.74 for the second.

Going from FSPNSPWFNVSGPGLLEEDNQWMT [Q7W] to FSPNSPQFNVSGGGLLEEDNQWMT [P13G], the protein stability index rises from 2.64 to 2.89.

Going from FSPNSPQFNVSGEGLLEEDNQWMT [P13E] to FSPNSPQFNVSGVGLLEEDNQWMT [P13V], the protein stability index falls from 3.58 to 2.75.

Going from FSPNSPQFNVSGNGLLEEDNQWMT [P13N] to FSPNSPQFNVSGPGLLEEDNQTMT [W22T], the protein stability index rises from 3.5 to 3.83.

Compared with FSPNSPQFNVSGPGLLEEDNQGMT [W22G], FSPNSPQFNVSGPGLNEEDNQWMT [L16N] is lower in protein stability index: 3.85 for the first, 2.97 for the second.

Compared with FSPNSPQFNVSGPGLSEEDNQWMT [L16S], FSPNSPQFNVSGPGLYEEDNQWMT [L16Y] is lower in protein stability index: 3.23 for the first, 2.73 for the second.

Compared with FSPNSPQFNVSGPGLLEERNQWMT [D19R], FSPNSPQFNVSGPGLLEEVNQWMT [D19V] is higher in protein stability index: 1.94 for the first, 2.1 for the second.

First: FSPNSPQFNVSGPGLLEECNQWMT [D19C]
Second: FSPNSPQFHVSGPGLLEEDNQWMT [N9H]
The protein stability index of the first is higher: 2.72 for the first, 2.22 for the second.

First: FSPNSPQFRVSGPGLLEEDNQWMT [N9R]
Second: FSPGSPQFNVSGPGLLEEDNQWMT [N4G]
The protein stability index of the first is lower: 2.32 for the first, 2.53 for the second.

Going from FSPISPQFNVSGPGLLEEDNQWMT [N4I] to FSPHSPQFNVSGPGLLEEDNQWMT [N4H], the protein stability index falls from 2.67 to 2.53.

Going from FSPDSPQFNVSGPGLLEEDNQWMT [N4D] to FSPVSPQFNVSGPGLLEEDNQWMT [N4V], the protein stability index falls from 3.79 to 3.03.

Going from FSPKSPQFNVSGPGLLEEDNQWMT [N4K] to FSPNSPQFNVSGPGLLEHDNQWMT [E18H], the protein stability index falls from 2.98 to 2.39.

First: FSPNSPQFNVSGPGLLEFDNQWMT [E18F]
Second: FSPNSPQFNVSGPGLLETDNQWMT [E18T]
The protein stability index of the first is higher: 2.61 for the first, 2.23 for the second.

Compared with FSPNSPQFNVSGPGLLEMDNQWMT [E18M], FSPNSPQFNVSGPGLLENDNQWMT [E18N] is higher in protein stability index: 2.65 for the first, 2.83 for the second.

First: FSPNSPQFNVSGPGLLESDNQWMT [E18S]
Second: FSPNSWQFNVSGPGLLEEDNQWMT [P6W]
The protein stability index of the first is lower: 1.88 for the first, 4.26 for the second.

First: FSPNSQQFNVSGPGLLEEDNQWMT [P6Q]
Second: FSPNSGQFNVSGPGLLEEDNQWMT [P6G]
The protein stability index of the first is higher: 2.48 for the first, 2.34 for the second.

Going from FSPNSPQFNVSGPGMLEEDNQWMT [L15M] to FSPNSPQFNVSGPGELEEDNQWMT [L15E], the protein stability index rises from 3.22 to 3.46.

Going from FSPNSPQFNVSGPGFLEEDNQWMT [L15F] to FSPNSPQFNVSGPGWLEEDNQWMT [L15W], the protein stability index falls from 2.91 to 2.68.

First: FSPNSPQFNLSGPGLLEEDNQWMT [V10L]
Second: FSPNSPQFNMSGPGLLEEDNQWMT [V10M]
The protein stability index of the first is lower: 2.74 for the first, 3.33 for the second.

First: FSPNSPQFNQSGPGLLEEDNQWMT [V10Q]
Second: FSPNSPQFNTSGPGLLEEDNQWMT [V10T]
The protein stability index of the first is higher: 3.32 for the first, 2.89 for the second.

Compared with FSPNSPQFNSSGPGLLEEDNQWMT [V10S], FFPNSPQFNVSGPGLLEEDNQWMT [S2F] is lower in protein stability index: 3.19 for the first, 3.06 for the second.

Going from FPPNSPQFNVSGPGLLEEDNQWMT [S2P] to FKPNSPQFNVSGPGLLEEDNQWMT [S2K], the protein stability index rises from 2.47 to 3.63.

First: FIPNSPQFNVSGPGLLEEDNQWMT [S2I]
Second: FSPNSPQFNVSGPGLLEEDNQWLT [M23L]
The protein stability index of the first is lower: 1.76 for the first, 2.76 for the second.

Going from FSPNSPQFNVSGPGLLEEDNQWAT [M23A] to FSPNSPQFNVSGPGLLEEDNQWDT [M23D], the protein stability index rises from 3.66 to 4.65.
